Data from the domain aggregation screens of Martell et al. (2025).

Experiment: soluble fraction after stress (log2 fold change); higher = more stays soluble; pooled small domains, quantitative proteomics
Details: stress: 75 degC
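Also: 20 min heating vs room temperature control held 20 min.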

Row | Sequence | soluble fraction (log2)
1 | HMQISGSEELEKIVQTVLEKNTDVVEEYKSGKTKVFAFLMGQVMKESRGKANPRLAKDILEKFLA | -0.429
2 | HMQITAPVQKIDGVEYYMHKVEQGQTLYSISKLYNVGVKEIQKANQLGTEGIQLGQVLKVRKGG | -0.2
3 | HMQIYLTPEQFKIIDFMEQMGKITVKDVMDILNIPKRTAQLHLQKLKTLKMIAQTGKGPSSAYLL | -1.11
4 | HMQKDAYVPDIISKLKSSRMIVVEGTIYPLLTRLKNTGLLSYRWEESLQGPPRKYYSITEQG | 0.268
5 | HMQKDYKTRLQEYYAKVGKKVNYMDSSTGPDHDKKFQTQVFLDKEIIGVGEGKSKKSSQQEAAKQALEKI | 0.267
6 | HMQKFINQEHEKAYNLMLEKDYQQALKIFDDLIYLFPNEANLLSDRGVIFIHLNKKEAALQDFDQAVF | -1.97
7 | HMQKIEKVDYGTFLKMIENGEIDQVNLTEKKISFTTDKDAETVYETGRVEDPNIVDRLYQADVEFTQEI | 0.598
8 | HMQKIENYDQFVQAFKRLSGLDLKLYKENQMKRRINNFINNHGFKENYDQFFQAITGNKELYNAFFKHLTI | -0.527
9 | HMQKKYLAVKEYLLEQINSGAYQPDEPIPPEREMAAMLGVNRMTLRRAVEELMYEGLLIRKKGSGTFLTK | -2.03
10 | HMQKLSPKQRRGNIIELIKENPTITAKNISTIFNLNQRTIERDLAKLTEEGYIKYEGSSKDGKWVFL | -0.134
11 | HMQKNKSVLFKDIVIAFNQNPKKLFNYKQLAADLDIHSEAERMLISQLLNDLKDQNFLEEVERGKYKLKL | -0.766
12 | HMQKPIKPVKMHTVGPKENLSSIGRMYEVNGRVLANYNNIDYDKGLTIGQVLKIPPKGTTLEQVT | 0.853
13 | HMQKTIDWSQVDKEQYLSAMERSPVNDLEIKAILAKALTSDINNRELFMKGLDHSYYFEGYQLFKSE | -0.526
14 | HMQKTQVVEVAGKSYQLTKMDARTGSYVAFKVAGVLAPSGGKTAEMAAALMGMPRKDFDELQSLLLRTV | 0.025
15 | HMQKYSTIIGVIELRQSGIGYRTTKKRYNIGNSTVTLIMNRFHELGLSLEELKAMPPKKVEEAFYPPE | -3.22
16 | HMQLASILDDIPGIGKKRKENLLTHFGSFSKIQSADIDALAEVPGISRDLAETIHTYLKTHQ | -0.0246
17 | HMQLDLSDPSKNKLDSIVSLPIKSLKAVEANGEILFMSENGRFVLRGQLYDIWYKDTLDTSAQIQDAATRI | 0.331
18 | HMQLDLTSTLDHMYKQMRNDHPRALLMAVEKEMVLRALKETDGNQLRASDILGISRSTLRKRIEEFDINS | -1.24
19 | HMQLEPLITSVIPVNFAKAGEVATTIKGKEVGLVSDRGSITAESRTNVLIVKDIKKNVDDISAMVKRLD | -0.00331
20 | HMQLGEEAGDELVAIVRSVINDNDKALADYLAGKSSALKFLLGQVMRQTKGRADHALVQSLLEAELEAL | -0.0341
21 | HMQLHDTMKRVYEALDISEQKLAESLGLKLSTIINWQKNGISKIGINKLNQTFGLDMQWILTGQGEPFI | -0.0293
22 | HMQLLDIGSAVRIIREPYFGRLGTVVELPPELMEIESGTHARVLKAKLDDGTVAVVPRANVEIIVE | -0.785
23 | HMQLNNTDELEKIILKILENNPKQVDQFLAGKQKLLGFFVGQAMRATSGKANPKTVNDLLEKFLSK | 0.027
24 | HMQLPDLDEIRQMRKRLDLSQRELAALAGVSQSLIAKIEKGSIDPSYDNVRKIFNAFENILKKRALE | -0.119
25 | HMQLPIGDVKLSVEHLSSGTALQDISFEVHRGEIFGFLGLVGAGRSETAETIFGLREKTDGKISIDGTVL | -0.0579
26 | HMQLPTNAAAILRYLSSGAVKGVGSATAVRIVEKFGEETLNILEQDPLRLAEIRGISRDKAKKIGEDFASQ | -0.322

Row | Sequence | soluble fraction (log2)
27 | HMQLSMLPYGFARRHGVLLVEQDEQPTLIHRAGITATVIAEVQRVAGQIDAWRLVDDARFDQQLAEVYRD | -1.33
28 | HMQLTPAQHAILAYAIEHTGGKIEWFPDNIKGGARTKVLEGLFNKALITRDSTDWFVAAEGYDALGR | -0.949
29 | HMQLYSLEVLSKKKVDLIENNKNLINLYFNKENGEYSYRLIFKNRKELYQVKDTLDNSSDVVSIKLDL | -2.27
30 | HMQMGLNEAYRVLHVSPDAPWREVQSAYKERMAKSHPDKVSHLGEELQEKAKELTVEINKAYNTIKRYKK | 0.47
31 | HMQMKDRILRIMEHEGISPSKFAEEIGIQRSAMSHIISGRNNPSLDVLTKIMQRFTYVDTDWLLFGKGSMV | -1.99
32 | HMQMPDLTGKPRAEAVTTLAALGFTDVKFLDASAGDEPLDYVADQVVRTSPEAGAALASGQQITIYLAT | -0.203
33 | HMQMSDTSMIRDLVLQVLAENPQSIEDFKNGKDRAVGFLVGMVMKKSQGKANPQITNQMIVEELKK | -0.228
34 | HMQMSERENTILLTKRYIERGEYERAMNLLDSLLIKNALDEEALAMIDEIIALKAGASLQDFPRY | -0.797
35 | HMQMTTPQMVPLFTDLSVDDSASIIKDLERQAVPYQIKSDGAIIMVPKDKVTRLRMKLAESGLPK | 0.488
36 | HMQNDDLTKLDGIGPYIEQRLNDIGIYNYEQLSKLNTEDIQKITELIDFFPGRIERDNWVSQAQLLKI | -0.515
37 | HMQNDILIQADEIVGDYFDMDKEALKMNKQAVIADIEKRQATAQGDEASALHYAKQKVENEFEDDGSQKD | 0.109
38 | HMQNKFLDIVGEIEVKAVDYYLLKDTSGLVIKFPKNLVFANGLKIADNKIGLTVSLYGAWVHEET | -1.08
39 | HMQNKYIIKQGNSGELVEVLQELLNLKQDGVFGPQTKKAVIAFQQKHKLVADGIVGPMSWRKLNFNPEELF | -2.36
40 | HMQNLISSDEAKNIALQHANLTDNQVTFIKVSKDYDDGIHIYEVEFHYNNREYNYDINAINGTILSYEQ | -1.34
41 | HMQNNKITIYISGAVNRPGIVTIESDKRLYDAVELLGGTTKEADLNGVNLSVRLEDEQHYIIPKIGEA | -0.432
42 | HMQNNWFYEENGQRKGPVSENEMVQFIKSSVISHGTSVWKQGFPDWLKVENTDLRVHLDNSAP | 0.105
43 | HMQNREQNILDGKSILDKELKRVGLLNQSAAIMAQEMKFNSQDDLFAALGSGATRIGQIINHLQKQS | -0.00272
44 | HMQNSMTTTPDVVGKTGTFAEQMLKAANLNVQFAGDSSGKVVAQDVEAGTSAAYGTIITLTMDS | 0.693
45 | HMQNVKIKAEVKGEVISPGVYELDEESRIQDLIDASGGFSDKAYYDNINLSMKLKDEMVLVVYDKDKI | -0.271
46 | HMQPADYSDLYAAAKSAGEADMRAAFALTDKQERTAAVNAARETIKAALSEEQLADANLGSALKKLEAGV | -0.122
47 | HMQPASPELNNQEKKVLQALPENEVIHIDELSDKIQIPVGELLTVLLSLEMKETVIQEPGKFFRRR | -1.29
48 | HMQPDFLDAKASLALLGVRPQTLYAYVSRGAIRSVPQPGTKAHLYSRSDIERVMARAAARAG | -1.34
49 | HMQPDYRVLYSNFSDKDGGAIVAALEKMNVPYKFSEGGSAILVPAGQVHQARLKLAADGLPK | 0.0648
50 | HMQPLGHDLTERELDVLALMVTGMNNSEIADKLVVSRSTIKYHVSNILSKLQATSRTEAVAYALQQNLVH | -2.51
51 | HMQPQIDFEIDVEVRASSLRIVAAPNSDVLVATVGRGEHVVQLTYPKDGWVMIRTADDRVGFVPESLLL | -2
52 | HMQPQYSVLFSNIEEKDGGSIITLLQQGNVPYKVENGGTTILVPANRANELRLTLAAQGLPK | 0.449

Row | Sequence | soluble fraction (log2)
53 | HMQPVLSDAEVNDLKNIAGGERGYNQLMDWAGNNLTAQDAKSYDDVLATGNKAAISFAIKALMGQYEDAN | -0.0478
54 | HMQQEAVNLVQSRGQQAIEPVHIMQGVMKVGENVTNFIFQKLGMNGQQVALVVDKQIDSLPKVSGGEPYL | 0.124
55 | HMQQEAVSGKLLQLDLAKKEGRLSTDLGREVLFHIPKPELFVHLSVGQRIIIKLDAGQEAVGV | -0.178
56 | HMQQELDAFKLLITVSGVGPKAAMAVLSVLPPDRLSIAVSSGDVKSIQSAQGVGKKTAERIVLELKDKM | -0.906
57 | HMQQIEIEEPITVKNLSAVAGLKASEIIAKLMKLGVMSTINQVMERQHAEEIAGEYGFELVVK | -0.132
58 | HMQQISDPQVLRPMAEEVLHQSQKVVQDYKGGNKNAFHALVGQMMKKTQGKGNPQVIGQVLSELLDE | 0.98
59 | HMQQKNWIVRDGDGKIYGPFTTEQVLVQIDRGYFVGGEEVALYPGGRWIAISGAPEFYDRLLDALAMEG | -0.995
60 | HMQQQLLHIVFGGELKDVTGIEFEDLSKMDFVGAFSNYKDAYDAWKSAAQRTVDHAEMRYFILHAHKLL | -6.11
61 | HMQQRTVEHVDTAVEALALSIGERAGVDLPYMAHLTGKTQEDLIEDLTGVIFPVPGTEPLRYVTADDYLS | 0.181
62 | HMQQSVSSLVRRYMLQTIPGINFSLKSTALALNMSDRTLQRKLLSENTSYQIILDDVRKELAIKYLKE | -3.23
63 | HMQQVIQSGQKVQLMATDGSFQVSAEGVALKNGSVGEVIGVRMPSGRVISGVVSASGAVEVR | 0.125
64 | HMQQVLGDVNEDDKVDFLDAIVVLRHDAEIIQLTDNQMKAAEVNKDGKVDFLDAIMILRYDAEIIGS | -0.0321
65 | HMQRDDMQIDRLIQIVFLLLSRNNLTAKQLAEELGVSTRTIYRDINILSVAGIPITSQKGYGGGLSLLQG | -0.608
66 | HMQRDELRYDQFLTALQNKEFTQLNVRFDDYTYLVTGTFQSGRPFSTRGPVSEEFIRLIESSGVQVTWLPM | -1.65
67 | HMQRDERYVYHTVLAGETIYSLSRKFNVTMDELLESNPALRSGVLTTGSEIRVLKAQMAQNFD | -1.25
68 | HMQRQGTVATQQTPLNIRSQPSLSAQVIGQAPKGATVAILGESGDWYQIRYQNITGYSSKQYI | 0.0804
69 | HMQRSVEDVFVQLRNGMDTYDMTQIEDALRILHGMELSTAQRDLLDKVQEAYNDLEYETGAALLAGFERIK | 0.134
70 | HMQRYFINEPVPEDQRLVLPKDIAHHLVDVLRAEQNDELEVALNDQKVYLARLISLNPATVELQSDLG | 0.465
71 | HMQRYFLEEAYQPSEKFELSAEAFHHIVHVMRMKPKDRVYLAFSDQQVIIAEITEITEEKVYLTEIEKEE | -3.23
72 | HMQRYYDVLGLQKGVSPEELKKTYRELSKKYHPDAHHNSPLRDLAEAKFKEINEAYEKIKEFLDNNF | -0.207
73 | HMQSAKLSYSDFMQKVNAGDVVSVKIQGPKISGVTTGGGKFMTYAPEDPTLVSTLMQKKVEVMAEP | 0.139
74 | HMQSAMALTKDLIEQQGKYYHRGQPFTGVGFAKNKKGKFVTEEPFKNGLLHGKRVNYDHNGHVLAREK | -0.105
75 | HMQSEESTHIGERMLNQALRAMHVEPSAVKEKQWEKLIRDYSVKNKQDILTDIGLGKRQSVMVAHQLLAI | -0.165
76 | HMQSEISRIGRILKERRLQLGYTQEYAAEKAGISYSYYTKIERGQQLPSLEVAMVLSKTFSLSMDRWL | -4.78
